Measured values reported in paper PMC6019700 (Cell Reports, 2018).

Tests used:
[1] = target: PC64M18C043 full-length Env (late FL), clade A HIV-1 Env clone no. 43 from the 18 months post-infection … (HIV-1 clade A, donor PC64, clone …, strain, N-linked glycans (N130, N156, N160 and others) | N-linked glycans (N611, N616, N637 and others)); test: cell-based or functional assay
[2] = target: PC64M4C054 full-length Env (early FL) (HIV-1 clade A, donor PC64, clone …, strain, N-linked glycans | N-linked glycans); test: cell-based or functional assay

B1: PGT151 Fab (Fab, V domains shown)
VH: RVQLVESGGGVVQPGKSVRLSCVVSDFPFSKYPMYWVRQAPGKGLEWVAAISGDAWHVVYSNSVQGRFLVSRDNVKNTLYLEMNSLKIEDTAVYRCARMFQESGPPRLDRWSGRNYYYYSGMDVWGQGTTVTVSS
VL: DIVMTQTPLSLSVTPGQPASISCKSSESLRQSNGKTSLYWYRQKPGQSPQLLVFEVSNRFSGVSDRFVGSGSGTDFTLRISRVEAEDVGFYYCMQSKDFPLTFGGGTKVDLK
neutralisation of late Env pseudovirus, IC50 [1]: 0.0013 µg/mL

B2: PCT64-35S Fab (late Fab), PCT64 lineage antibody isolated from the month 35 sample (Fab, V domains shown)
VH: EVQLVESGGGLVKPGGSLRLACVGSEFTFSEAWMTWVRQAPGKGLEWVGHMRPTTEGGAKDYAAAVRGRFTIARDDSKSTLYLQMNSLKIEDTGVYYCMTGVERGDFWSDDYSQHYNTYLIDVWGKGTTVTVSS
VL: EIVLTQSPGTLSLSPGDRATLSCRATQSVGGDYFAWYQQRPGQSPRLLIYGTSRRAAGIPDRFSGSGSGTDFTLTIDRLEPEDFAVYYCRQYETSFTFGPGTKVDIK
neutralisation of late M18 virus by the antibody PCT64-35S, IC50 [1]: 9 µg/mL

B3: PCT64-13C Fab (early Fab), PCT64 lineage antibody isolated from month 13 (Fab, V domains shown)
VH: EVQLVESGGGLVKPGGSLRLSCAASGFTFTNAWLDWVRQAPGKGLEWVGRIKSKTDGGTTDHAAPVKGRFTISRDDSKNTVYLQMNSLKIEDTAVYYCTTGVETYDFWSGYDDHYYDYYFKDVWGKGTTVTVSS
VL: EIVLTQSPGTLSLSPGERATLSCRASQSVSNNYLAWYQQKPGQAPRLLIYGASSRATGIPDRFSGSGSGTDFTLTISRLEPEDFAVYYCQQSARSFTFGPGTKVDIK
neutralisation of early M4 virus by the antibody PCT64-13C, IC50 [2]: 0.0229 µg/mL
